Measurements from FireProtDB (doi:10.1021/bi0525223).

B1: Protein P-30, P22069 (parent)
chain: QDWLTFQKKHITNTRDVDCDNIMSTNLFHCKDKNTFIYSRPEPVKAICKGIIASKNVLTTSEFYLSDCNVTSRPCKYKLKKSTNKFCVTCENQAPVHFVGVGSC

Variants of: B1
Conditions: Lithobates pipiens, pH 5.5, sodium acetate 100 mM, reversible: Yes, structure 1ONC, whole UniProt chain shown; for ddG of mutation (higher = less stable) / denaturant midpoint (higher = more stable): 20 °C, GdnHCl, Fluorescence; for Tm / change of melting temperature, mutant - wild type (higher = more stable): Thermal, DSC

Row | Variant | ddG of mutation (higher = less stable) | denaturant midpoint (higher = more stable) | Tm | change of melting temperature, mutant - wild type (higher = more stable)
1 | F28A | 5 kcal/mol | 2.9 M | 78.1 °C | -10.4 °C
2 | F28T | 5.31 kcal/mol | 2.8 M | 77.4 °C | -11.1 °C
3 | C87A C104A | 7.65 kcal/mol | 2.1 M | 69.4 °C | -19.1 °C
4 | F36Y | 4.66 kcal/mol | 3 M | 79.2 °C | -9.3 °C
